Results published in patent publication US20240101667A1, “METHODS FOR IDENTIFYING LILRB-BLOCKING ANTIBODIES” (THE BOARD OF REGENTS OF THE UNIVERSITY OF TEXAS SYSTEM, priority 2020, published 2024).

How the values were obtained:
Format in all cases: in vivo, mouse
[1] = Myeloid LysM-Cre driven LILRB3-transgenic C57BL/6 mice, hematopoiesis
Method: FIGS. S7A-C. […] (FIG. S7a) Schematic of generation of myeloid-specific LILRB3 transgenic mice. (FIGS. S7b-c) LILRB3 is expressed on myeloid cells in peripheral blood (PB), spleen (SPL) and bone marrow (BM) of LysM-Cre driven LILRB3 transgenic mice, which were treated by anti-LILRB3 #1 antibody (n=2 mice) or IgG (n=3 mice). Shown are representative flow cytometry plots (FIG. S7b) and result summary (FIG. S7c).
LILRB3 transgenic mice. LILRB3 cDNA was constructed into pR26 CAG AsiSI/MluI. Then the plasmid was purified with high concentration in the absence of endotoxin. Cas9 RNA, gRNA targeting mouse Rosa26 locus and the LILRB3 plasmid co-injected into mouse oocytes at the transgenic core facility of UTSW. The LILRB3 positive mice were identified by LILRB3 specific primers and crossbred with LysMcre mice (JAX, 004781). The LILRB3^+LysMcre^+ mice were analyzed with co-expression of LILRB3 and Mac-1 or Gr-1 in peripheral blood, spleen and bone marrow.

[2] = tested on: MLL-AF9 AML cells expressing B3-FL or B3delICD; experiment: Immuno-competent mice transplanted with MLL-AF9 AML cells expressing B3-FL or B3delICD; details: versus control IgG
Text: FIGS. 7A-N. Blocking anti-LILRB3 antibody prevents monocytic AML development. (FIG. 7A) Epitope binning of 30 high-affinity IgGs. (FIG. 7B) CFU assay of mouse MLL-AF9 AML cells in the presence of above IgGs (n=3 independent experiments). (FIG. 7C) Binding affinities of the two IgGs from bin #3. (FIG. 7D) Upper: Schematic of treatment. Lower: Percentages of GFP^+ MLL-AF9 mouse AIL cells in peripheral blood (PB), bone marrow (BM), spleen (SPL), and liver (LV) of mice transplanted with AML cells expressing B3-FL or B3delICD and injected with IgG or anti-LILRB3 #1 N297A (n=3 independent mice). (FIG. 7E) Overall survival of mice transplanted with indicated AML cells as above. (FIG. 7F) CFU assay of MLL-AF9 mouse AML cells expressing B3-FL or B3delICD in the presence of IgG or anti-LILRB3 #1 N297A (n=3 independent experiments) (FIG. 7G) Upper: Schematic of treatment. Recipient mice were injected with mouse IgG or anti-mCD8 to deplete CD8 T cells. Lower: Percentages of GFP^+ MLL-AF9 mouse AML cells in peripheral blood (PB), bone marrow (BM), spleen (SPL), and liver (LV) of mice transplanted with AML cells expressing B3-FL or B3delICD and injected with IgG or anti-LILRB3 #1 LALAPG (n=4 mice). (FIG. 7H) Survival of mice as in panel h (n=4 independent mice). (FIG. 7I) Upper: Schematic of treatment. Lower: Whole-body images of NSG mice transplanted with luciferase-expressing THP-1 cells and treated with IgG or anti-LILRB3 #1 N297A (#1NA). (FIG. 7J) Overall survival of the mice shown in panel h (n=3 independent mice). (FIG. 7K) Upper: Schematic of treatment. Lower: Whole-body images of NSG mice transplanted with luciferase-expressing Molm13 cells, injected with activated T cells, and treated with IgG or #1NA. (FIG. 7L) Luciferase signaling as a function of time in mice treated as described in panel k. (FIG. 7M) Overall survival of mice treated as described in panel k (n=3 independent mice). […] The data are presented as mean±s.e.m, and p values were calculated by two-tailed t-test except for FIG. 7E, FIG. 7H, FIG. 7J and FIG. 7M by log-rank test. […]

[3] = tested on: human AML cells (CD45+/CD33+); experiment: M5 AML patient-derived xenograft in NSG mice (primary transplantation)
Text: (FIG. 8A) Upper: Schematic of treatment. NSG mice were transplanted with monocytic AML patient peripheral blood sample (depleted red blood cells) and given IgG or #1NA. […] (FIG. 8C) The percentages of human T cells in NSG mice treated as indicated in panel a (n=8 independent mice). (FIG. 8D) Overall survival of the NSG mice treated as indicated in panel a (n=8 independent mice). (FIG. 8E) Schematic of treatment. NSG mice were transplanted with monocytic AML cells (derived from BM of NSG mice engrafted with monocytic AML patient peripheral blood samples) with treatment of IgG or anti-LILRB3 #1 LALAPG. (FIG. 8F) Flow cytometry analyses of LILRB3 expression on human AML cells in the mouse bone marrow. (FIG. 8G) The percentages of human AML cells (CD45^+/CD33^+) in NSG mice after treatment of IgG or #1NA as indicated in panel e. (n=5 independent mice). (FIG. 8H) The percentages of human T cells in NSG mice treated as indicated in panel e (n=5 independent mice). (FIG. 8I), Survival of NSG mice treated as indicated in panel e (n=5 independent mice). The data are presented as mean s.e.m, and p values were calculated by two-tailed t-test except for d and i by log-rank test.
Primary human leukemia. The primary human AML samples was obtained from the University of Texas Southwestern Medical Center. […] For primary transplantation, leukemia cells isolated from donor peripheral blood was injected into irradiated NSG mice (200 cGy), and antibody or IgG was introduced intravenously 8 days after injection. For secondary transplantation, human leukemia cells from frozen BM of NSG mice that were engrafted with patient AML cells were transplanted into sublethally-irradiated NSG recipients.

B1: anti-LILRB3 #1 N297A: IgG #1 with Fc glycosylation N297A mutation, defective Fc-mediated effector functions (antibody, V domains shown)
VH: EVQLVESGGGVVQPGRSLRLSCAASGFTFSSYGMHWVRQAPGKGLEWVAFIRYDGSNKYYADSVKGRFTISRDNSKNTLYLQMNSLRAEDTAVYYCAKAGFSGWYYYGMDVWGQGTMVTVSS
VL: DIVMTQSPSSLSASVGDRLTITCRASQSISTYLNWYQQKPGKAPKLLIYGASSLQSGVPSRFSGSGSGTDFTLTISSLQPEDFATYFCQQSYGLPLTFGGGTKVDIK
In the case of B1, the “normal hematopoiesis and leukocytosis” value ([1]; LILRB3 transgenic mice) is reported as “did not affect normal hematopoiesis and leukocytosis”, the toxicity ([1]; suggested from the transgenic mice) is reported as “low toxicity” and the “B3del ICD AML development” value [2] is reported as “no detectable difference”. For the same molecule, the “development of LILRB3-expressing (B3-FL) AML” value [2] was “significantly delayed development of LILRB3-expressing AML”, the “percentages of human autologous T cells” value ([3]; NSG mice) was “increased the percentages of human autologous T cells” and the “AML burden in peripheral blood, bone marrow, spleen, and liver” value ([3]; versus IgG) was “significantly lower AML burden”. The survival ([3]; versus control IgG) was “significant survival advantage”.
